Measured values from publication PMC5332220.
Where two headings read alike, the source gives them in different places.

Key:
SspB_milli [1] = molecular target: SspB_milli (UniProt P45206); assay: fluorescence polarisation
SspB_nano [2] = molecular target: SspB_nano (UniProt P45206); assay: fluorescence polarisation
SspB_micro [3] = molecular target: SspB_micro (UniProt P45206); assay: fluorescence polarisation
SspB_milli [4] = molecular target: SspB_milli (UniProt P45206)
SspB_nano [5] = molecular target: SspB_nano (UniProt P45206)
SspB_micro [6] = molecular target: SspB_micro (UniProt P45206)
SspB_milli [7] = molecular target: SspB_milli (UniProt P45206); assay: fluorescence polarisation; remark: listed apart in the source
SspB_nano [8] = molecular target: SspB_nano (UniProt P45206); assay: fluorescence polarisation; remark: listed apart in the source
SspB_micro [9] = molecular target: SspB_micro (UniProt P45206); assay: fluorescence polarisation; remark: listed apart in the source

sLID (slow Light Inducible Dimer) (designed binder)
Kd (SspB_milli [1]): 125 µM | Kd (SspB_nano [2]): 0.31 µM | Kd (SspB_micro [3]): 2.5 µM | spine/shaft ratio of GluA1-mCh-SspB fluorescence, dark (SspB_milli [4]): 1.5 | spine/shaft ratio of GluA1-mCh-SspB fluorescence, light (SspB_milli [4]): 2.4 | spine/shaft ratio of GluA1-mCh-SspB fluorescence, dark (SspB_nano [5]): 2.8 | spine/shaft ratio of GluA1-mCh-SspB fluorescence, light (SspB_nano [5]): 2.9 | spine/shaft ratio of GluA1-mCh-SspB fluorescence, dark (SspB_micro [6]): 1.5 | spine/shaft ratio of GluA1-mCh-SspB fluorescence, light (SspB_micro [6]): 1.8 | Kd (SspB_milli [7]): 3 µM | Kd (SspB_nano [8]): 0.007 µM | Kd (SspB_micro [9]): 0.11 µM
